Reference: US20090311257A1 (XOMA TECHNOLOGY, published 2009)
Where no end group is shown, it is not given here.

T1: biotinylated 10 amino acid peptide from the N terminal portion of Gastrin 17 (human, UniProt P01350 76-85, limits assumed, ends and bridges not checked)
T1 construct: domain: 10 amino acid peptide from the N terminal portion of Gastrin 17; Panning target; also called biotinylated peptide; biotinylated peptides
T1 peptide (looked up): QGPWLEEEEE-biotin

T2: CCK2R on the CCK2R overexpressing cell line AGS-TR (UniProt P32239 1-447, limits assumed)
T2 sequence (looked up): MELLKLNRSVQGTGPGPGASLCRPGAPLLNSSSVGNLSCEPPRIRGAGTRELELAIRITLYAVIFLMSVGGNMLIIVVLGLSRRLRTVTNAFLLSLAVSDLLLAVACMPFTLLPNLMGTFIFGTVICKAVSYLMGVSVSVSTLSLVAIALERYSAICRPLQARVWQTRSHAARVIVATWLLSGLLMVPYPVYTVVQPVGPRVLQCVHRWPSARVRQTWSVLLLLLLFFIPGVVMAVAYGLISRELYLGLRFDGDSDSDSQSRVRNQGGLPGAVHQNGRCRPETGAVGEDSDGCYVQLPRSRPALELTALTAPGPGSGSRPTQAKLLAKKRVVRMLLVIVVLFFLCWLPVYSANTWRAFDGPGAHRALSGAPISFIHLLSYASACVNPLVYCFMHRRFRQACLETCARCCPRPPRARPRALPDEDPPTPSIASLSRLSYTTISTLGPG

B1: human gastrin (h-G17) (ligand, UniProt P01350 76-92, looked up)
peptide: QGPWLEEEEEAYGWMDF

Assays:
[1] = biological target: B1; test: cell-based or functional assay
[2] = biological target: B1; test: cell-based or functional assay
[3] = biological target: B1; test: KD measurement of reformatted IgG; method and antigen form not stated in the example
[4] = biological target: T1, biotinylated 10 amino acid peptide from …; test: SPR, measured as described previously (BIACORE, biotinylated peptide on streptavidin chip); reformatted IgG
Method: (§1) Affinities of the parental (XPA067) and matured antibody fragments were determined by surface plasmon resonance using a BIACORE® 2000. Affinity constants were calculated from the kinetic rate constants for antibody binding to biotinylated peptide immobilized on a Streptavidin sensor chip.
(§2) A very low density of peptide was immobilized in order to avoid bivalent binding by the antibodies to the sensor chip. Antibodies were tested in triplicate at six concentrations of three-fold serial dilutions. Data were analyzed using BiaEval Software.
Antibody affinity was measured as described previously.

[5] = biological target: B1; test: KD measurement of reformatted IgG; method and antigen form not stated in the example; reformatted IgG, Table 2 lead selection
[6] = biological target: T1, biotinylated 10 amino acid peptide from …; test: SPR (BIACORE 2000), antibody over low-density biotinylated peptide on streptavidin chip; from kinetic rate constants; parental fragment, Table 3 comparator to the matured fragments
Method: as §1, §2

[7] = biological target: B1; test: summary sentence of the filing's own data; method not given; antibody not named
[8] = biological target: T2, CCK2R on the CCK2R overexpressing cell …; test: cell-based or functional assay

Row | Binder | Ca flux neutralization at 2x molar excess [1] [%] | Ca flux neutralization at roughly 100 fold molar excess over gastrin (1 nM) [1] [%] | other results
1 | XPA065 (phage display-derived antibody fragment) (antibody, V domains shown) VH: EVQLVQSGAEVKKPGSSVTVSCKASGGTFDKYAIGWVRQAPGQGLEWMGRIIPTLDLANSAQKFQDRVTITADKFTTTVYMELTNLRPEDTAMYYCTRDPLYNWSGSYWGRGTMVTVSS VL: QAVLTQPSSLSASPGTSASLTCTLRSGINVGSYRIYWYQQRPGSPPQYLLRYKSDSDKQQGSGVPSRFSGSKDASANAGVLFISGLQSDDEADYYCMIWHNSAWVFGGGTKLTVL | < 20 | ~80 | 
2 | XPA061 (phage display-derived antibody fragment) (antibody, V domains shown) VH: QVQLVQSGAEVKKPGSSVKVSCKISGGTFSSHAIGWVRQAPGQGLEWIGRIIPSLDLDNSAPKFQDRVTITADKFTNTAYMELRNLRPEDTAFYYCTGDPLYNWTGAHWGRGTMVTVSS VL: QAVLTQPSSLSASPGASASLTCTLRSDINVGTYRIYWYQQKSGSPPQYLLRYRSDSDKQQGSGVPSRFSGSKDASANAGILLISGLQSEDEADYYCMIWHSSAWVFGGGTKVTVL | ~70 | ~80 | 
3 | XPA061 reformatted whole human IgG (antibody, V domains shown) VH: QVQLVQSGAEVKKPGSSVKVSCKISGGTFSSHAIGWVRQAPGQGLEWIGRIIPSLDLDNSAPKFQDRVTITADKFTNTAYMELRNLRPEDTAFYYCTGDPLYNWTGAHWGRGTMVTVSS VL: QAVLTQPSSLSASPGASASLTCTLRSDINVGTYRIYWYQQKSGSPPQYLLRYRSDSDKQQGSGVPSRFSGSKDASANAGILLISGLQSEDEADYYCMIWHSSAWVFGGGTKVTVL |  |  | Ca Flux IC50 [2]: 1.34 nM; pERK IC50 (nM) [2]: 0.42 nM; Kd [3]: 9.9 nM
4 | XPA067 reformatted whole human IgG (antibody, V domains shown, also called parent antibody XPA067; parental a-gastrin mAb) VH: EVQLVQSGAEVKKPGSSVTVSCKASGGTFDKYAIGWVRQAPGQGLEWMGRIIPTLDLANSAQKFQDRVTITADKFTTTVYMELTNLRPEDTAMYYCTRDPLYNWSGSYWGRGTMVTVSS VL: QAVLTQPSSLSASPGASASLTCTLRSGINVGTYRIYWYQQKPGSPPQYLLRYKSDSDKQQGSGVPSRFSGSKDASANAGILLISGLQSEDEADYYCMIWHSSAWVFGGGTKLTVL |  |  | Ca Flux IC50 [2]: 0.76 nM; pERK IC50 (nM) [2]: 0.56 nM; Kd [4]: ~5 nM; Kd [5]: 3.9 nM
5 | XPA063 (phage display-derived antibody fragment) (antibody, V domains shown) VH: EVQLVQSGAEVKKPGSSVTVSCKASGGTFDKYAIGWVRQAPGQGLEWMGRIIPSLDLDNSAQKFQDRVTITADKFTTTVYMKLSNLRPEDTAMYYCTRDPLYNWSGSYWGRGTMVTVSS VL: QAVLTQPSSLSASPGASASLTCTLRSGINVGTYRIYWYQQKPGSPPQYLLRYKSDSDKQQGSGVPSRFSGSKDASANAGILLISGLQSEDEADYYCMIWHSSAWVFGGGTKLTVL | < 20 | > 70 | 
6 | XPA067 (parental antibody fragment) (antibody, V domains shown, also called parental (XPA067)) VH: EVQLVQSGAEVKKPGSSVTVSCKASGGTFDKYAIGWVRQAPGQGLEWMGRIIPTLDLANSAQKFQDRVTITADKFTTTVYMELTNLRPEDTAMYYCTRDPLYNWSGSYWGRGTMVTVSS VL: QAVLTQPSSLSASPGASASLTCTLRSGINVGTYRIYWYQQKPGSPPQYLLRYKSDSDKQQGSGVPSRFSGSKDASANAGILLISGLQSEDEADYYCMIWHSSAWVFGGGTKLTVL | < 20 | ~80 | Kd [6]: ~5 nM
7 | XPA081 (phage display-derived antibody fragment) (antibody, V domains shown) VH: EVQLVQSGAEVKKPGSSVTVSCKASGGTFDKYAIGWVRQAPGQGLEWMGRIIPSLDLDNSAQKFQDRVTITADKFTTTVYMKLSNLRPEDTAIYYCTRDPLYQWSGSYWGKGTLVTVSS VL: QAVLTQPSSLSASPGASASLTCTLRSDINVGTYRIYWYQQKPGSPPQYLLRYKSDSDKQQGSGVPSRFSGSKDASANAGILLISGLQSGDGADYYCMIWHSSAWVFGGGTKLTVL | < 20 | ~80 | 
8 | a monoclonal antibody with affinity of about 10^-9 M (anti-gastrin, not named in the sentence) (antibody, V domains shown) VH: EVQLVQSGAEVKKPGSSVTVSCKASGGTFDKYAIGWVRQAPGQGLEWMGRIIPTLDLANSAQKFQDRVTITADKFTTTVYMELTNLRPEDTAMYYCTRDPLYNWSGSYWGRGTMVTVSS VL: QAVLTQPSSLSASPGASASLTCTLRSGINVGTYRIYWYQQKPGSPPQYLLRYKSDSDKQQGSGVPSRFSGSKDASANAGILLISGLQSEDEADYYCMIWHSSAWVFGGGTKLTVL |  |  | Kd [7]: ~1 nM
9 | B1 |  |  | calcium flux EC50 (AGS-TR cells) [8]: 1 nM
